Laboratory results reported in patent US20210107971A1 (UCB, published 2021).

B1: 6470 rabbit Fab with heavy chain mutation H31K (Fab, V domains shown)
VH: QSVEESGGRLVTPGTPLTLTCTVSGIDLSSKDMYWVRQAPGKGLEYIGAIYASGSTYYASWAKGRFTISKTSTTVDLKMTSLTTEDTATYFCARIHYGNSGGLWGQGTLVTVSS
VL: AIVMTQTPSSKSVAVGDTVTINCQASQSVYKNNYLAWFQQKPGQPPKQLIYGASTLASGVPSRFKGSGSGTQFTLTISDVVCDDAATYYCAGYKGGRNDGFAFGGGTEVVVKR
B2: 6470 rabbit Fab with light chain mutation N33R (Fab, V domains shown)
VH: QSVEESGGRLVTPGTPLTLTCTVSGIDLSSHDMYWVRQAPGKGLEYIGAIYASGSTYYASWAKGRFTISKTSTTVDLKMTSLTTEDTATYFCARIHYGNSGGLWGQGTLVTVSS
VL: AIVMTQTPSSKSVAVGDTVTINCQASQSVYKNRYLAWFQQKPGQPPKQLIYGASTLASGVPSRFKGSGSGTQFTLTISDVVCDDAATYYCAGYKGGRNDGFAFGGGTEVVVKR
B3: 6470 rabbit Fab with heavy chain mutation N99K (Fab, V domains shown)
VH: QSVEESGGRLVTPGTPLTLTCTVSGIDLSSHDMYWVRQAPGKGLEYIGAIYASGSTYYASWAKGRFTISKTSTTVDLKMTSLTTEDTATYFCARIHYGKSGGLWGQGTLVTVSS
VL: AIVMTQTPSSKSVAVGDTVTINCQASQSVYKNNYLAWFQQKPGQPPKQLIYGASTLASGVPSRFKGSGSGTQFTLTISDVVCDDAATYYCAGYKGGRNDGFAFGGGTEVVVKR
B4: 6470 rabbit Fab with heavy chain mutation N99W (Fab, V domains shown)
VH: QSVEESGGRLVTPGTPLTLTCTVSGIDLSSHDMYWVRQAPGKGLEYIGAIYASGSTYYASWAKGRFTISKTSTTVDLKMTSLTTEDTATYFCARIHYGWSGGLWGQGTLVTVSS
VL: AIVMTQTPSSKSVAVGDTVTINCQASQSVYKNNYLAWFQQKPGQPPKQLIYGASTLASGVPSRFKGSGSGTQFTLTISDVVCDDAATYYCAGYKGGRNDGFAFGGGTEVVVKR
B5: 6470 rabbit Fab with heavy chain mutation N99R (Fab, V domains shown)
VH: QSVEESGGRLVTPGTPLTLTCTVSGIDLSSHDMYWVRQAPGKGLEYIGAIYASGSTYYASWAKGRFTISKTSTTVDLKMTSLTTEDTATYFCARIHYGRSGGLWGQGTLVTVSS
VL: AIVMTQTPSSKSVAVGDTVTINCQASQSVYKNNYLAWFQQKPGQPPKQLIYGASTLASGVPSRFKGSGSGTQFTLTISDVVCDDAATYYCAGYKGGRNDGFAFGGGTEVVVKR
B6: 6470 rabbit Fab with heavy chain mutation N99Q (Fab, V domains shown)
VH: QSVEESGGRLVTPGTPLTLTCTVSGIDLSSHDMYWVRQAPGKGLEYIGAIYASGSTYYASWAKGRFTISKTSTTVDLKMTSLTTEDTATYFCARIHYGQSGGLWGQGTLVTVSS
VL: AIVMTQTPSSKSVAVGDTVTINCQASQSVYKNNYLAWFQQKPGQPPKQLIYGASTLASGVPSRFKGSGSGTQFTLTISDVVCDDAATYYCAGYKGGRNDGFAFGGGTEVVVKR
B7: 6470 rabbit Fab with heavy chain mutation N99H (Fab, V domains shown)
VH: QSVEESGGRLVTPGTPLTLTCTVSGIDLSSHDMYWVRQAPGKGLEYIGAIYASGSTYYASWAKGRFTISKTSTTVDLKMTSLTTEDTATYFCARIHYGHSGGLWGQGTLVTVSS
VL: AIVMTQTPSSKSVAVGDTVTINCQASQSVYKNNYLAWFQQKPGQPPKQLIYGASTLASGVPSRFKGSGSGTQFTLTISDVVCDDAATYYCAGYKGGRNDGFAFGGGTEVVVKR
B8: 6470 rabbit Fab with heavy chain mutation S53N (Fab, V domains shown)
VH: QSVEESGGRLVTPGTPLTLTCTVSGIDLSSHDMYWVRQAPGKGLEYIGAIYANGSTYYASWAKGRFTISKTSTTVDLKMTSLTTEDTATYFCARIHYGNSGGLWGQGTLVTVSS
VL: AIVMTQTPSSKSVAVGDTVTINCQASQSVYKNNYLAWFQQKPGQPPKQLIYGASTLASGVPSRFKGSGSGTQFTLTISDVVCDDAATYYCAGYKGGRNDGFAFGGGTEVVVKR
B9: 6470 rabbit Fab with light chain mutation N33K (Fab, V domains shown)
VH: QSVEESGGRLVTPGTPLTLTCTVSGIDLSSHDMYWVRQAPGKGLEYIGAIYASGSTYYASWAKGRFTISKTSTTVDLKMTSLTTEDTATYFCARIHYGNSGGLWGQGTLVTVSS
VL: AIVMTQTPSSKSVAVGDTVTINCQASQSVYKNKYLAWFQQKPGQPPKQLIYGASTLASGVPSRFKGSGSGTQFTLTISDVVCDDAATYYCAGYKGGRNDGFAFGGGTEVVVKR
B10: 6470 rabbit Fab with heavy chain mutation S55N (Fab, V domains shown)
VH: QSVEESGGRLVTPGTPLTLTCTVSGIDLSSHDMYWVRQAPGKGLEYIGAIYASGNTYYASWAKGRFTISKTSTTVDLKMTSLTTEDTATYFCARIHYGNSGGLWGQGTLVTVSS
VL: AIVMTQTPSSKSVAVGDTVTINCQASQSVYKNNYLAWFQQKPGQPPKQLIYGASTLASGVPSRFKGSGSGTQFTLTISDVVCDDAATYYCAGYKGGRNDGFAFGGGTEVVVKR
B11: 6470 rabbit Fab with heavy chain mutation H31Q (Fab, V domains shown)
VH: QSVEESGGRLVTPGTPLTLTCTVSGIDLSSQDMYWVRQAPGKGLEYIGAIYASGSTYYASWAKGRFTISKTSTTVDLKMTSLTTEDTATYFCARIHYGNSGGLWGQGTLVTVSS
VL: AIVMTQTPSSKSVAVGDTVTINCQASQSVYKNNYLAWFQQKPGQPPKQLIYGASTLASGVPSRFKGSGSGTQFTLTISDVVCDDAATYYCAGYKGGRNDGFAFGGGTEVVVKR
B12: 6470 rabbit Fab with heavy chain mutation H31R (Fab, V domains shown)
VH: QSVEESGGRLVTPGTPLTLTCTVSGIDLSSRDMYWVRQAPGKGLEYIGAIYASGSTYYASWAKGRFTISKTSTTVDLKMTSLTTEDTATYFCARIHYGNSGGLWGQGTLVTVSS
VL: AIVMTQTPSSKSVAVGDTVTINCQASQSVYKNNYLAWFQQKPGQPPKQLIYGASTLASGVPSRFKGSGSGTQFTLTISDVVCDDAATYYCAGYKGGRNDGFAFGGGTEVVVKR
B13: 6470 rabbit Fab with light chain mutation Y30W (Fab, V domains shown)
VH: QSVEESGGRLVTPGTPLTLTCTVSGIDLSSHDMYWVRQAPGKGLEYIGAIYASGSTYYASWAKGRFTISKTSTTVDLKMTSLTTEDTATYFCARIHYGNSGGLWGQGTLVTVSS
VL: AIVMTQTPSSKSVAVGDTVTINCQASQSVWKNNYLAWFQQKPGQPPKQLIYGASTLASGVPSRFKGSGSGTQFTLTISDVVCDDAATYYCAGYKGGRNDGFAFGGGTEVVVKR
B14: 6470gL3gH46 (antibody, V domains shown)
VH: EVQLLESGGGLVQPGGSLRLSCAASGIDLSSHDMYWVRQAPGKGLEYIGAIYASGSTYYASWAKGRFTISRDNSKNTVYLQMNSLRAEDTAVYYCARIHYGNSGGLWGQGTLVTVSS
VL: DIQMTQSPSSLSASVGDRVTITCQASQSVYKNNYLAWFQQKPGKAPKQLIYGASTLASGVPSRFSGSGSGTQFTLTISSLQPEDFATYYCAGYKGGRNDGFAFGGGTKVEIKR
B15: 6470gL6gH23 (antibody, V domains shown)
VH: EVQLLESGGGLVQPGGSLRLSCAVSGIDLSSHDMYWVRQAPGKGLEYIGAIYASGSTYYASWAKGRFTISRDNSKNTVYLQMNSLRAEDTAVYYCARIHYGNSGGLWGQGTLVTVSS
VL: DIQMTQSPSSLSASVGDRVTITCQASQSVYKNNYLAWFQQKPGKAPKSLIYGASTLASGVPSRFSGSGSGTQFTLTISSLQPEDFATYYCAGYKGGRNDGFAFGGGTKVEIKR
B16: 6470gL3gH27 (antibody, V domains shown)
VH: EVQLLESGGGLVQPGGSLRLSCAVSGIDLSSHDMYWVRQAPGKGLEYISAIYASGSTYYASWAKGRFTISKDSSKNTVYLQMNSLRAEDTAVYYCARIHYGNSGGLWGQGTLVTVSS
VL: DIQMTQSPSSLSASVGDRVTITCQASQSVYKNNYLAWFQQKPGKAPKQLIYGASTLASGVPSRFSGSGSGTQFTLTISSLQPEDFATYYCAGYKGGRNDGFAFGGGTKVEIKR
B17: 6470gL3gH26 (antibody, V domains shown)
VH: EVQLLESGGGLVQPGGSLRLSCAVSGIDLSSHDMYWVRQAPGKGLEYVGAIYASGSTYYASWAKGRFTISKDSSKNTVYLQMNSLRAEDTAVYYCARIHYGNSGGLWGQGTLVTVSS
VL: DIQMTQSPSSLSASVGDRVTITCQASQSVYKNNYLAWFQQKPGKAPKQLIYGASTLASGVPSRFSGSGSGTQFTLTISSLQPEDFATYYCAGYKGGRNDGFAFGGGTKVEIKR
B18: 6470gL3gH50 (antibody, V domains shown)
VH: EVQLLESGGGLVQPGGSLRLSCAASGIDLSSHDMYWVRQAPGKGLEYIGAIYASGSTYYASWAKGRFTISRDSSKNTLYLQMNSLRAEDTAVYYCARIHYGNSGGLWGQGTLVTVSS
VL: DIQMTQSPSSLSASVGDRVTITCQASQSVYKNNYLAWFQQKPGKAPKQLIYGASTLASGVPSRFSGSGSGTQFTLTISSLQPEDFATYYCAGYKGGRNDGFAFGGGTKVEIKR

How the values were obtained:
[1] = biological target: recombinant full-length human alpha synuclein monomer (human, UniProt P37840 1-140); assay: SPR, Biacore T200, as in Example 3; Fab injected;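 also: ligands amine-coupled on CM5 chip flow cells, HBS-EP+ running buffer, kinetic data fitted with 1:1 model allowing local bulk contribution and global Rmax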
Method: (§1) Interaction kinetics were determined by using surface plasmon resonance technology on a Biacore T200 instrument. Three different ligands including recombinant full-length human alpha synuclein monomer, purified recombinant human alpha synuclein fibrils, and purified recombinant mouse alpha synuclein fibrils, prepared as described herein, were each immobilized on three different flow cells of a CM5 chip surface using amine-coupling chemistry. The three ligands were prepared in 10 mM NaAc, pH 3.5, and immobilized onto separate flow cell surfaces to reach an immobilization level of about 30 response units (RU) for alpha synuclein monomer, about 40 RU for human alpha synuclein fibrils, and about 300 RU for mouse alpha synuclein fibrils respectively, at a flow rate of 10 μI/min. The buffer HBS-EP+(GE healthcare Bio-Sciences AB) was used as running buffer for both ligand immobilization and kinetics assay. […] The surface was regenerated by one injection of 50 mM HCl for 90 s at 10 μI/min, and another injection of 50 mM HCl for 60 s at 10 μI/min. The data were analyzed using the Biacore T200 evaluation software (version 3.0) using the bivalent analyte model with assumed no bulk contribution (RI=0) and global Rmax for IgG format, and 1:1 model with flexible bulk contribution (local RI) and global Rmax.

[2] = biological target: T1, purified recombinant human alpha synuclein fibrils (human, UniProt P37840 1-140); assay: SPR, Biacore T200, as in Example 3; Fab injected;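 also: ligands amine-coupled on CM5 chip flow cells, HBS-EP+ running buffer, kinetic data fitted with 1:1 model allowing local bulk contribution and global Rmax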
Method: as §1

[3] = biological target: T1, purified recombinant human alpha …; assay: affinity for human alpha synuclein fibrils, IgG4P; method not given

| Binder | Kd [1] | koff [1] | kon [1] | Kd [2] | koff [2] | kon [2] | Kd [3] |
| --- | --- | --- | --- | --- | --- | --- | --- |
| B1 | 152 nM | 0.938 s⁻¹ | 6.17e+06 M⁻¹ s⁻¹ | 46.7 nM | 0.423 s⁻¹ | 9.06e+06 M⁻¹ s⁻¹ | – |
| B2 | – | 0.0799 s⁻¹ | 1.92e+07 M⁻¹ s⁻¹ | 2.9 nM | 0.0289 s⁻¹ | 9.98e+06 M⁻¹ s⁻¹ | – |
| B3 | 23.9 nM | 0.189 s⁻¹ | 7.89e+06 M⁻¹ s⁻¹ | 20.7 nM | 0.207 s⁻¹ | 1.58e+07 M⁻¹ s⁻¹ | – |
| B4 | 61.3 nM | 0.566 s⁻¹ | 9.22e+06 M⁻¹ s⁻¹ | 25.3 nM | 0.134 s⁻¹ | 5.27e+06 M⁻¹ s⁻¹ | – |
| B5 | 16.9 nM | 0.17 s⁻¹ | 1.22e+07 M⁻¹ s⁻¹ | 15.3 nM | 0.154 s⁻¹ | 1.89e+07 M⁻¹ s⁻¹ | – |
| B6 | 1310 nM | 0.493 s⁻¹ | 375000 M⁻¹ s⁻¹ | 42.4 nM | 0.425 s⁻¹ | 1.03e+07 M⁻¹ s⁻¹ | – |
| B7 | 0.7 nM | 0.00745 s⁻¹ | 1.33e+07 M⁻¹ s⁻¹ | 0.4 nM | 0.00401 s⁻¹ | 6.2e+06 M⁻¹ s⁻¹ | – |
| B8 | 1130 nM | 0.0517 s⁻¹ | 45600 M⁻¹ s⁻¹ | 49.6 nM | 0.286 s⁻¹ | 5.75e+06 M⁻¹ s⁻¹ | – |
| B9 | 15.2 nM | 0.0433 s⁻¹ | 2.84e+06 M⁻¹ s⁻¹ | 7.1 nM | 0.0498 s⁻¹ | 6.93e+06 M⁻¹ s⁻¹ | – |
| B10 | 1.9 nM | 0.0191 s⁻¹ | 1.39e+07 M⁻¹ s⁻¹ | 1.4 nM | 0.013 s⁻¹ | 9.2e+06 M⁻¹ s⁻¹ | – |
| B11 | 23.1 nM | 0.185 s⁻¹ | 8e+06 M⁻¹ s⁻¹ | 12.4 nM | 0.0972 s⁻¹ | 7.83e+06 M⁻¹ s⁻¹ | – |
| B12 | 1660 nM | 0.44 s⁻¹ | 265000 M⁻¹ s⁻¹ | 62.3 nM | 0.373 s⁻¹ | 5.98e+06 M⁻¹ s⁻¹ | – |
| B13 | 50.4 nM | 0.151 s⁻¹ | 2.99e+06 M⁻¹ s⁻¹ | 18.8 nM | 0.0895 s⁻¹ | 4.75e+06 M⁻¹ s⁻¹ | – |
| B14 | – | – | – | – | – | – | 0.316 nM |
| B15 | – | – | – | – | – | – | 0.547 nM |
| B16 | – | – | – | – | – | – | 22.3 nM |
| B17 | – | – | – | – | – | – | 0.3 nM |
| B18 | – | – | – | – | – | – | 0.58 nM |
